First the molecules themselves.
B1: AP-2 complex subunit beta (Homo sapiens), P63010 (parent)
chain: MTDSKYFTTNKKGEIFELKAELNNEKKEKRKEAVKKVIAAMTVGKDVSSLFPDVVNCMQTDNLELKKLVYLYLMNYAKSQPDMAIMAVNSFVKDCEDPNPLIRALAVRTMGCIRVDKITEYLCEPLRKCLKDEDPYVRKTAAVCVAKLHDINAQMVEDQGFLDSLRDLIADSNPMVVANAVAALSEISESHPNSNLLDLNPQNINKLLTALNECTEWGQIFILDCLSNYNPKDDREAQSICERVTPRLSHANSAVVLSAVKVLMKFLELLPKDSDYYNMLLKKLAPPLVTLLSGEPEVQYVALRNINLIVQKRPEILKQEIKVFFVKYNDPIYVKLEKLDIMIRLASQANIAQVLAELKEYATEVDVDFVRKAVRAIGRCAIKVEQSAERCVSTLLDLIQTKVNYVVQEAIVVIRDIFRKYPNKYESIIATLCENLDSLDEPDARAAMIWIVGEYAERIDNADELLESFLEGFHDESTQVQLTLLTAIVKLFLKKPSETQELVQQVLSLATQDSDNPDLRDRGYIYWRLLSTDPVTAKEVVLSEKPLISEETDLIEPTLLDELICHIGSLASVYHKPPNAFVEGSHGIHRKHLPIHHGSTDAGDSPVGTTTATNLEQPQVIPSQGDLLGDLLNLDLGPPVNVPQVSSMQMGAVDLLGGGLDSLVGQSFIPSSVPATFAPSPTPAVVSSGLNDLFELSTGIGMAPGGYVAPKAVWLPAVKAKGLEISGTFTHRQGHIYMEMNFTNKALQHMTDFAIQFNKNSFGVIPSTPLAIHTPLMPNQSIDVSLPLNTLGPVMKMEPLNNLQVAVKNNIDVFYFSCLIPLNVLFVEDGKMERQVFLATWKDIPNENELQFQIKECHLNADTVSSKLQNNNVYTIAKRNVEGQDMLYQSLKLTNGIWILAELRIQPGNPNYTLSLKCRAPEVSQYIYQVYDSILKN
partner: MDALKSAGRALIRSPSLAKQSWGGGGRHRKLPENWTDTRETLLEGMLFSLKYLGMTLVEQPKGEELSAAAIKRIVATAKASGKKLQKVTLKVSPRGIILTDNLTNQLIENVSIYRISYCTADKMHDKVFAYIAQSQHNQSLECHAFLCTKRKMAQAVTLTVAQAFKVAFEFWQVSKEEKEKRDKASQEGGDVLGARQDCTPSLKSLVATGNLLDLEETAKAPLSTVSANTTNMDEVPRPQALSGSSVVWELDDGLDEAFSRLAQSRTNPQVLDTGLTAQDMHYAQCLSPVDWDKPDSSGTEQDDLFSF
B2: Low density lipoprotein receptor adapter protein 1 (Homo sapiens), Q5SW96 (parent)
chain: B1 partner

In the first assay the parent is B1. Conditions: with arh_human LDLRAP1, Q5SW96.
As for E902A, the “effect of a mutation on the interaction” value is on record as “decreasing interaction strength”. With E849A, the “effect of a mutation on the interaction” value is reported as “disrupting interaction strength”.

In a further assay the parent is B2. Conditions: with clh1_bovin CLTC.
As to MDALKSAGRALIRSPSLAKQSWGGGGRHRKLPENWTDTRETLLEGMLFSLKYLGMTLVEQPKGEELSAAAIKRIVATAKASGKKLQKVTLKVSPRGIILTDNLTNQLIENVSIYRISYCTADKMHDKVFAYIAQSQHNQSLECHAFLCTKRKMAQAVTLTVAQAFKVAFEFWQVSKEEKEKRDKASQEGGDVLGARQDCTPSLKSLVATGNAADLEETAKAPLSTVSANTTNMDEVPRPQALSGSSVVWELDDGLDEAFSRLAQSRTNPQVLDTGLTAQDMHYAQCLSPVDWDKPDSSGTEQDDLFSF [L212A;L213A], the “effect of a mutation on the interaction” value was “disrupting interaction strength”.

Consider MDALKSAGRALIRSPSLAKQSWGGGGRHRKLPENWTDTRETLLEGMLFSLKYLGMTLVEQPKGEELSAAAIKRIVATAKASGKKLQKVTLKVSPRGIILTDNLTNQLIENVSIYRISYCTADKMHDKVFAYIAQSQHNQSLECHAFLCTKRKMAQAVTLTVAQAFKVAFEFWQVSKEEKEKRDKASQEGGDVLGARQDCTPSLKSLVATGNLLALAETAKAPLSTVSANTTNMDEVPRPQALSGSSVVWELDDGLDEAFSRLAQSRTNPQVLDTGLTAQDMHYAQCLSPVDWDKPDSSGTEQDDLFSF [D214A;E216A], for which the “effect of a mutation on the interaction” value is “disrupting interaction strength”.

Variants of B2 are the subject of another assay. Conditions: with ap2b1_human AP2B1, P63010.
On to MDALKSAGRALIRSPSLAKQSWGGGGRHRKLPENWTDTRETLLEGMLFSLKYLGMTLVEQPKGEELSAAAIKRIVATAKASGKKLQKVTLKVSPRGIILTDNLTNQLIENVSIYRISYCTADKMHDKVFAYIAQSQHNQSLECHAFLCTKRKMAQAVTLTVAQAFKVAFEFWQVSKEEKEKRDKASQEGGDVLGARQDCTPSLKSLVATGNLLDLEETAKAPLSTVSANTTNMDEVPRPQALSGSSVVWELDDGLDEAFSRLAQSATNPQVLDTGLTAQDMHYAQCLSPVDWDKPDSSGTEQDDLFSF [R266A], for which the “effect of a mutation on the interaction” value is recorded as “disrupting interaction strength”.

The values are drawn from IntAct's records for PubMed 12221107.
